B1: bispecific epitope binding protein S07 (bispecific antibody)
chain: FLESPDRPWNAPTFSPALLLVAEGDNATFTCSFSNASESFHVVWHRESPSGQTDTLAAFPEDRSQPGQDHRFRVTRLPNGRDFHMSVVRAQRNDSGTYVCGVISLAPKIQIKESLRAELRVTERRAEVPTAHPSPSPRPAGQFQTLVVGASGGGGSGGGGSDKTHTCPPCPAPEAAGGPSVFLFPPKPKDTLMISRTPEVTCVVVDVSHEDPEVKFNWYVDGVEVHNAKTKPREEQYNSTYRVVSVLTVLHQDWLNGKEYKCAVSNKALPAPIEKTISKAKGQPREPQVYTLPPSREEMTKNQVSLTCLVKGFYPSDIAVEWESNGQPENNYKTTPPVLDSDGSFFLYSKLTVDKSRWQQGNVFSCSVMHEALHNHYTQKSLSLSPGGGGGSGGGGSDIVMTQSPAFLSVTPGEKVTITCRASQTISDYLHWYQQKPDQAPKLLIKYASQSISGIPSRFSGSGSGTDFTFTISSLEAEDAATYYCQDGHSWPPTFGQGTKLEIKGSTSGSGKPGSGEGSTKGQVQLVQSGAEVKKPGASVKLSCKASGYTFSSYWMHWVRQAPGQGLEWIGEINPGNGHTNYNEKFKSRVTMTRDTSTSTAYMELSSLRSEDTAVYYCARSFKTARAFAYWGQGTLVTVSS
notes: Anti-4-1BB 94kvt scFv x euPD-1 with hinge and engineered IgG1 Fc
B2: bispecific epitope binding protein S05 (bispecific antibody)
chain: FLESPDRPWNAPTFSPALLLVAEGDNATFTCSFSNASESFHVVWHRESPSGQTDTLAAFPEDRSQPGQDHRFRVTRLPNGRDFHMSVVRAQRNDSGTYVCGVISLAPKIQIKESLRAELRVTERRAEVPTAHPSPSPRPAGQFQTLVVGASGGGGSGGGGSDKTHTCPPCPAPEAAGGPSVFLFPPKPKDTLMISRTPEVTCVVVDVSHEDPEVKFNWYVDGVEVHNAKTKPREEQYNSTYRVVSVLTVLHQDWLNGKEYKCAVSNKALPAPIEKTISKAKGQPREPQVYTLPPSREEMTKNQVSLTCLVKGFYPSDIAVEWESNGQPENNYKTTPPVLDSDGSFFLYSKLTVDKSRWQQGNVFSCSVMHEALHNHYTQKSLSLSPGGGGGSGGGGSQVQLVQSGAEVKKPGASVKLSCKASGYTFSSYWMHWVRQAPGQGLEWIGEINPGNGHTNYNEKFKSRVTMTRDTSTSTAYMELSSLRSEDTAVYYCARSFKTARAFAYWGQGTLVTVSSGSTSGSGKPGSGEGSTKGDIVMTQSPAFLSVTPGEKVTITCRASQTISDYLHWYQQKPDQAPKLLIKYASQSISGIPSRFSGSGSGTDFTFTISSLEAEDAATYYCQDGHSWPPTFGQGTKLEIK
notes: as for B1
B3: bispecific epitope binding protein S06 (bispecific antibody)
chain: FLESPDRPWNAPTFSPALLLVAEGDNATFTCSFSNASESFHVVWHRESPSGQTDTLAAFPEDRSQPGQDHRFRVTRLPNGRDFHMSVVRAQRNDSGTYVCGVISLAPKIQIKESLRAELRVTERRAEVPTAHPSPSPRPAGQFQTLVVGGGGGSGGGGSGGGGSFLESPDRPWNAPTFSPALLLVAEGDNATFTCSFSNASESFHVVWHRESPSGQTDTLAAFPEDRSQPGQDHRFRVTRLPNGRDFHMSVVRAQRNDSGTYVCGVISLAPKIQIKESLRAELRVTERRAEVPTAHPSPSPRPAGQFQTLVVGASGGGGSGGGGSDKTHTCPPCPAPEAAGGPSVFLFPPKPKDTLMISRTPEVTCVVVDVSHEDPEVKFNWYVDGVEVHNAKTKPREEQYNSTYRVVSVLTVLHQDWLNGKEYKCAVSNKALPAPIEKTISKAKGQPREPQVYTLPPSREEMTKNQVSLTCLVKGFYPSDIAVEWESNGQPENNYKTTPPVLDSDGSFFLYSKLTVDKSRWQQGNVFSCSVMHEALHNHYTQKSLSLSPGGGGGSGGGGSQVQLVQSGAEVKKPGASVKLSCKASGYTFSSYWMHWVRQAPGQGLEWIGEINPGNGHTNYNEKFKSRVTMTRDTSTSTAYMELSSLRSEDTAVYYCARSFKTARAFAYWGQGTLVTVSSGSTSGSGKPGSGEGSTKGDIVMTQSPAFLSVTPGEKVTITCRASQTISDYLHWYQQKPDQAPKLLIKYASQSISGIPSRFSGSGSGTDFTFTISSLEAEDAATYYCQDGHSWPPTFGQGTKLEIK
notes: as for B1
B4: bispecific epitope binding protein S09 (bispecific antibody)
heavy: QVQLVQSGAEVKKPGASVKLSCKASGYTFSSYWMHWVRQAPGQGLEWIGEINPGNGHTNYNEKFKSRVTMTRDTSTSTAYMELSSLRSEDTAVYYCARSFKTARAFAYWGQGTLVTVSSASTKGPSVFPLAPSSKSTSGGTAALGCLVKDYFPEPVTVSWNSGALTSGVHTFPAVLQSSGLYSLSSVVTVPSSSLGTQTYICNVNHKPSNTKVDKKVEPKSCDKTHTCPPCPAPEAAGGPSVFLFPPKPKDTLMISRTPEVTCVVVDVSHEDPEVKFNWYVDGVEVHNAKTKPREEQYNSTYRVVSVLTVLHQDWLNGKEYKCAVSNKALPAPIEKTISKAKGQPREPQVYTLPPSREEMTKNQVSLTCLVKGFYPSDIAVEWESNGQPENNYKTTPPVLDSDGSFFLYSKLTVDKSRWQQGNVFSCSVMHEALHNHYTQKSLSLSPGGGGGSGGGGSFLESPDRPWNAPTFSPALLLVAEGDNATFTCSFSNASESFHVVWHRESPSGQTDTLAAFPEDRSQPGQDHRFRVTRLPNGRDFHMSVVRAQRNDSGTYVCGVISLAPKIQIKESLRAELRVTERRAEVPTAHPSPSPRPAGQFQTLVVG
light: DIVMTQSPAFLSVTPGEKVTITCRASQTISDYLHWYQQKPDQAPKLLIKYASQSISGIPSRFSGSGSGTDFTFTISSLEAEDAATYYCQDGHSWPPTFGQGTKLEIKRTVAAPSVFIFPPSDEQLKSGTASVVCLLNNFYPREAKVQWKVDNALQSGNSQESVTEQDSKDSTYSLSSTLTLSKADYEKHKVYACEVTHQGLSSPVTKSFNRGEC
notes: engineered IgG1 Fc; carries euPD-1
B5: bispecific epitope binding protein S04 (bispecific antibody)
chain: DIVMTQSPAFLSVTPGEKVTITCRASQTISDYLHWYQQKPDQAPKLLIKYASQSISGIPSRFSGSGSGTDFTFTISSLEAEDAATYYCQDGHSWPPTFGQGTKLEIKGSTSGSGKPGSGEGSTKGQVQLVQSGAEVKKPGASVKLSCKASGYTFSSYWMHWVRQAPGQGLEWIGEINPGNGHTNYNEKFKSRVTMTRDTSTSTAYMELSSLRSEDTAVYYCARSFKTARAFAYWGQGTLVTVSSASGGGGSGGGGSDKTHTCPPCPAPEAAGGPSVFLFPPKPKDTLMISRTPEVTCVVVDVSHEDPEVKFNWYVDGVEVHNAKTKPREEQYNSTYRVVSVLTVLHQDWLNGKEYKCAVSNKALPAPIEKTISKAKGQPREPQVYTLPPSREEMTKNQVSLTCLVKGFYPSDIAVEWESNGQPENNYKTTPPVLDSDGSFFLYSKLTVDKSRWQQGNVFSCSVMHEALHNHYTQKSLSLSPGGGGGSGGGGSFLESPDRPWNAPTFSPALLLVAEGDNATFTCSFSNASESFHVVWHRESPSGQTDTLAAFPEDRSQPGQDHRFRVTRLPNGRDFHMSVVRAQRNDSGTYVCGVISLAPKIQIKESLRAELRVTERRAEVPTAHPSPSPRPAGQFQTLVVGGGGGSGGGGSGGGGSFLESPDRPWNAPTFSPALLLVAEGDNATFTCSFSNASESFHVVWHRESPSGQTDTLAAFPEDRSQPGQDHRFRVTRLPNGRDFHMSVVRAQRNDSGTYVCGVISLAPKIQIKESLRAELRVTERRAEVPTAHPSPSPRPAGQFQTLVVG
notes: as for B1
B6: bispecific epitope binding protein S01 (bispecific antibody)
chain: QVQLVQSGAEVKKPGASVKLSCKASGYTFSSYWMHWVRQAPGQGLEWIGEINPGNGHTNYNEKFKSRVTMTRDTSTSTAYMELSSLRSEDTAVYYCARSFKTARAFAYWGQGTLVTVSSGSTSGSGKPGSGEGSTKGDIVMTQSPAFLSVTPGEKVTITCRASQTISDYLHWYQQKPDQAPKLLIKYASQSISGIPSRFSGSGSGTDFTFTISSLEAEDAATYYCQDGHSWPPTFGQGTKLEIKASGGGGSGGGGSDKTHTCPPCPAPEAAGGPSVFLFPPKPKDTLMISRTPEVTCVVVDVSHEDPEVKFNWYVDGVEVHNAKTKPREEQYNSTYRVVSVLTVLHQDWLNGKEYKCAVSNKALPAPIEKTISKAKGQPREPQVYTLPPSREEMTKNQVSLTCLVKGFYPSDIAVEWESNGQPENNYKTTPPVLDSDGSFFLYSKLTVDKSRWQQGNVFSCSVMHEALHNHYTQKSLSLSPGGGGGSGGGGSFLESPDRPWNAPTFSPALLLVAEGDNATFTCSFSNASESFHVVWHRESPSGQTDTLAAFPEDRSQPGQDHRFRVTRLPNGRDFHMSVVRAQRNDSGTYVCGVISLAPKIQIKESLRAELRVTERRAEVPTAHPSPSPRPAGQFQTLVVG
notes: Anti-4-1BB 94kvt scFv x euPD-1 with hinge and engineered IgG1 Fc (L234A, L235A, K322A, D356E, L358M)
B7: bispecific epitope binding protein S08 (bispecific antibody)
chain: FLESPDRPWNAPTFSPALLLVAEGDNATFTCSFSNASESFHVVWHRESPSGQTDTLAAFPEDRSQPGQDHRFRVTRLPNGRDFHMSVVRAQRNDSGTYVCGVISLAPKIQIKESLRAELRVTERRAEVPTAHPSPSPRPAGQFQTLVVGGGGGSGGGGSGGGGSFLESPDRPWNAPTFSPALLLVAEGDNATFTCSFSNASESFHVVWHRESPSGQTDTLAAFPEDRSQPGQDHRFRVTRLPNGRDFHMSVVRAQRNDSGTYVCGVISLAPKIQIKESLRAELRVTERRAEVPTAHPSPSPRPAGQFQTLVVGASGGGGSGGGGSDKTHTCPPCPAPEAAGGPSVFLFPPKPKDTLMISRTPEVTCVVVDVSHEDPEVKFNWYVDGVEVHNAKTKPREEQYNSTYRVVSVLTVLHQDWLNGKEYKCAVSNKALPAPIEKTISKAKGQPREPQVYTLPPSREEMTKNQVSLTCLVKGFYPSDIAVEWESNGQPENNYKTTPPVLDSDGSFFLYSKLTVDKSRWQQGNVFSCSVMHEALHNHYTQKSLSLSPGGGGGSGGGGSDIVMTQSPAFLSVTPGEKVTITCRASQTISDYLHWYQQKPDQAPKLLIKYASQSISGIPSRFSGSGSGTDFTFTISSLEAEDAATYYCQDGHSWPPTFGQGTKLEIKGSTSGSGKPGSGEGSTKGQVQLVQSGAEVKKPGASVKLSCKASGYTFSSYWMHWVRQAPGQGLEWIGEINPGNGHTNYNEKFKSRVTMTRDTSTSTAYMELSSLRSEDTAVYYCARSFKTARAFAYWGQGTLVTVSS
notes: as for B1

target: T1, 4-1BB antigen (abclon) (UniProt Q07011 24-186); experiment: SPR, Biacore T200; variant captured on CM5, 4-1BB antigen injected
T1 construct: Bought antigen
T1 sequence (Q07011 24-186): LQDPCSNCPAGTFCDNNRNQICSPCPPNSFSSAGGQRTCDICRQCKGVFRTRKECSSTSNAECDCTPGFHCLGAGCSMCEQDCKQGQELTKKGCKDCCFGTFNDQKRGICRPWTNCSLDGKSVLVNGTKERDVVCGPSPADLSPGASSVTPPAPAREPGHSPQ
Description: (§1) Affinity to 4-1BB was determined using the bispecific epitope binding protein variants diluted to 5 μg/ml and then fixed to CM5 chip (Cytiva, BR-1005-30) with human capture (Cytiva, Cat. No. BR-1008-39). The 4-1BB antigen (abclon) was injected at concentrations of 100, 50, 25, 12.5, 6.25, and 3.125 nM, the association time was set to 150 seconds, and the dissociation time was set to 240 seconds. Biacore T200 (cytiva) was used as the analysis equipment.

First: B1
Second: B2
The Kd of the first is 29-fold higher: 105 nM for the first, 3.66 nM for the second.

Going from B3 to B4, the Kd falls from 3.72 nM to 2.17 nM (1.7-fold).

B5 and B6 are within 1.5-fold of each other in Kd: 2.87 nM for the first, 3.34 nM for the second.

With B7 the Kd was 6.83 nM.

B1 and B2 are within 1.5-fold of each other in koff: 0.000676 s⁻¹ for the first, 0.000466 s⁻¹ for the second.

First: B3
Second: B4
The koff of the first is 1.6-fold higher: 0.000914 s⁻¹ for the first, 0.000568 s⁻¹ for the second.

B5 and B6 are within 1.5-fold of each other in koff: 0.000662 s⁻¹ for the first, 0.000537 s⁻¹ for the second.

B7 gave a koff of 0.000764 s⁻¹.

First: B1
Second: B2
The kon of the first is 20-fold lower: 6430 M⁻¹ s⁻¹ for the first, 127000 M⁻¹ s⁻¹ for the second.

B3 and B4 are within 1.5-fold of each other in kon: 245000 M⁻¹ s⁻¹ for the first, 261000 M⁻¹ s⁻¹ for the second.

B5 and B6 are within 1.5-fold of each other in kon: 231000 M⁻¹ s⁻¹ for the first, 161000 M⁻¹ s⁻¹ for the second.

B7 was tested, and the kon was 112000 M⁻¹ s⁻¹.

target: T2, PD-L1 antigen (SinoBiologics, Cat. No. 10084-H08H) (human, UniProt Q9NZQ7 19-238); experiment: SPR, Biacore T200; variant captured on CM5, PD-L1 antigen injected
T2 construct: Bought antigen; also called human PD-L1
T2 sequence (Q9NZQ7 19-238 limits assumed): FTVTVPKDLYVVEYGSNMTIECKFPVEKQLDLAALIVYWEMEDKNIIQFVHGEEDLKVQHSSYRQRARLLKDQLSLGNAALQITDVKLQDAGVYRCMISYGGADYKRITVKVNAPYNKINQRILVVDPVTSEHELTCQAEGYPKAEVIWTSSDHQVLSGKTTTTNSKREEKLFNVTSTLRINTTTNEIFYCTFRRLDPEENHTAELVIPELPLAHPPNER
Description: as §1
Affinity to PD-L1 was determined using the bispecific epitope binding protein variants diluted to 10 μg/ml and then fixed to CM5 chip with human capture.

B1 and B2 are within 1.5-fold of each other in Kd: 1.58 nM for the first, 1.16 nM for the second.

First: B3
Second: B4
The Kd of the first is 2.8-fold lower: 2.22 nM for the first, 6.26 nM for the second. The first binds more tightly here.

First: B5
Second: B6
The Kd of the first is 2.4-fold lower: 2.34 nM for the first, 5.73 nM for the second.

B7 was tested, and the Kd was 2.22 nM.

B1 and B2 are within 1.5-fold of each other in koff: 0.00158 s⁻¹ for the first, 0.00169 s⁻¹ for the second.

B3 and B4 are within 1.5-fold of each other in koff: 0.00186 s⁻¹ for the first, 0.00131 s⁻¹ for the second.

B5 and B6 are within 1.5-fold of each other in koff: 0.0014 s⁻¹ for the first, 0.00132 s⁻¹ for the second.

With B7 the koff was 0.00186 s⁻¹.

B1 and B2 are within 1.5-fold of each other in kon: 1e+06 M⁻¹ s⁻¹ for the first, 1.46e+06 M⁻¹ s⁻¹ for the second.

First: B3
Second: B4
The kon of the first is 4-fold higher: 837000 M⁻¹ s⁻¹ for the first, 209000 M⁻¹ s⁻¹ for the second.

First: B5
Second: B6
The kon of the first is 2.6-fold higher: 596000 M⁻¹ s⁻¹ for the first, 230000 M⁻¹ s⁻¹ for the second.

Binder B7 has a kon of 837000 M⁻¹ s⁻¹.

From patent US20220275083A1 (EUTILEX, published 2022)
